Results on two molecules are retold here after patent US20260374883 (published 2026).

For one assay, the target named is T1, mouse CX3CR1 (mouse, UniProt Q9Z0D9).
T1 chain: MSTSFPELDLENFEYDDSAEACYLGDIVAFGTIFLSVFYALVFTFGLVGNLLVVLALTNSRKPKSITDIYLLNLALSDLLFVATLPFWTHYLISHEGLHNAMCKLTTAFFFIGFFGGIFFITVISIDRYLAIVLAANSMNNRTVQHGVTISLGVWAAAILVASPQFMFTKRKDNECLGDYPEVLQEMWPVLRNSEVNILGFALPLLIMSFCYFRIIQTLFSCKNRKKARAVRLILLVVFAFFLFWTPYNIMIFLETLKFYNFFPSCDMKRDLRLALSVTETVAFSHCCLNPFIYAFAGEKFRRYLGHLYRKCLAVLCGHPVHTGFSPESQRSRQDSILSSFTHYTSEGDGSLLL
The assay is described as follows: FACS.

The target in another assay is T2, rat CX3CR1 (rat, UniProt P35411).
T2 chain: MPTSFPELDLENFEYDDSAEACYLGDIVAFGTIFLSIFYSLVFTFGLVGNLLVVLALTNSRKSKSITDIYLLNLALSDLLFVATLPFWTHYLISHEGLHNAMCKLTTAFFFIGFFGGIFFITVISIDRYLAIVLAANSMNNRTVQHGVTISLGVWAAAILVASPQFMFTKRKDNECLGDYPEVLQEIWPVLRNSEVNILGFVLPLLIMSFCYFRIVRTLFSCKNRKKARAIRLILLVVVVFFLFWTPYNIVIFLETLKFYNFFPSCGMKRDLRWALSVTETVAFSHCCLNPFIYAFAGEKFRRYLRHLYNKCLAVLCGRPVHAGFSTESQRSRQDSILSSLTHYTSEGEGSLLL
The assay is described as follows: FACS.

B1: m1F8-2 (antibody, V domains shown)
VH: QVQLQQSGAELARPGASVKLSCKASGFTFTNYWMQWIKQRPGQGLEWIGAIYPGSGESRYTRKFKGKATLTADKSSSTAYMQLNSLASEDSAVYYCARWAGYSRNAAYWGQGTLVTVSA
VL: DVLMTQTPLSLPVSLGDQASISCRSRQSIVHSSGNTYLEWYLQKPGQSPKLLIYKVSNRFSGVPDRFSGSGSGTDFTLKISRVEAEDLGVYYCFQGSHIPPTFGGGTKLEIK
Turning to B1, the binding result with mouse CX3CR1 and in the assay with rat CX3CR1 was “no binding” throughout.

B2: m1F8-1 (antibody, V domains shown)
VH: QVQLQQSGAELARPGASVKLSCKASGFTFTNYWMQWIKQRPGQGLEWIGAIYPGSGESRYTRKFKGKATLTADKSSSTAYMQLNSLASEDSAVYYCARWAGYSRNAAYWGQGTLVTVSA
VL: DVLMTQTPLSLPVSLGDQASISCRSSQSIVHSSGNTYLEWYLQKPGQSPKLLIYKVSNRFSGVPDRFSGSGSGTDFTLKISRVEAEDLGVYYCFQGSHIPPTFGGGTKLEIK
As to B2, the binding result with mouse CX3CR1 and in the assay with rat CX3CR1 was “no binding” in each case.
